Series [1] relates to RECQL1 WT (human). Put plainly: EMSA. The note with it: EMSA: 20 mM Tris pH 7.4, 10 mM KCl, 5 mM MgCl2, 10% glycerol, 80 ng/ul BSA, with or without 5 mM ATPgS, 0.5 nM DNA; competition at 37 C (8 min, then 7 min with …). A general note: A gel shift assay detects complexes by their altered migration in electrophoresis.
Series [2] relates to RECQL1-A459S (human). Put plainly: EMSA. The settings on record: EMSA: 20 mM Tris pH 7.4, 10 mM KCl, 5 mM MgCl2, 10% glycerol, 80 ng/ul BSA, with or without 5 mM ATPgS, 0.5 nM DNA; competition at 37 C (8 min, then 7 min with …).
In series [3] the test system is RECQL1 WT (human). Description: EMSA. The note with it: EMSA: 20 mM Tris pH 7.4, 10 mM KCl, 5 mM MgCl2, 10% glycerol, 80 ng/ul BSA, with or without 5 mM ATPgS, 0.5 nM DNA; competition at 37 C (8 min, then 7 min with …). The source holds these as a separate data set.
Series [4] concerns RECQL1-A459S (human). Description: EMSA. The settings on record: EMSA: 20 mM Tris pH 7.4, 10 mM KCl, 5 mM MgCl2, 10% glycerol, 80 ng/ul BSA, with or without 5 mM ATPgS, 0.5 nM DNA; competition at 37 C (8 min, then 7 min with …). This is another data set of the same source.
Series [5] deals with the molecule itself. Description: SEC; size exclusion chromatography of the purified recombinant protein in the absence of ATP. In general terms: Size exclusion chromatography separates by hydrodynamic size, large species first.

Consider 19 bp forked duplex, for which the Kd in the series on RECQL1 WT (human) [1] turned out to be 2.94 nM?; in the series with RECQL1-A459S (human) [2], 4.74 nM?; in the series on RECQL1 WT (human) [3], 5.39 nM?; with RECQL1-A459S (human) [4], 7.69 nM?.

B1: recombinant human WT RECQL1 (enzyme, UniProt P46063 1-649, looked up)
chain: MASVSALTEELDSITSELHAVEIQIQELTERQQELIQKKKVLTKKIKQCLEDSDAGASNEYDSSPAAWNKEDFPWSGKVKDILQNVFKLEKFRPLQLETINVTMAGKEVFLVMPTGGGKSLCYQLPALCSDGFTLVICPLISLMEDQLMVLKQLGISATMLNASSSKEHVKWVHAEMVNKNSELKLIYVTPEKIAKSKMFMSRLEKAYEARRFTRIAVDEVHCCSQWGHDFRPDYKALGILKRQFPNASLIGLTATATNHVLTDAQKILCIEKCFTFTASFNRPNLYYEVRQKPSNTEDFIEDIVKLINGRYKGQSGIIYCFSQKDSEQVTVSLQNLGIHAGAYHANLEPEDKTTVHRKWSANEIQVVVATVAFGMGIDKPDVRFVIHHSMSKSMENYYQESGRAGRDDMKADCILYYGFGDIFRISSMVVMENVGQQKLYEMVSYCQNISKCRRVLMAQHFDEVWNSEACNKMCDNCCKDSAFERKNITEYCRDLIKILKQAEELNEKLTPLKLIDSWMGKGAAKLRVAGVVAPTLPREDLEKIIAHFLIQQYLKEDYSFTAYATISYLKIGPKANLLNNEAHAITMQVTKSTQNSFRAESSQTCHSEQGDKKMEEKNSGNFQKKAANMLQQSGSKNTGAKKRKIDDA
notes: RECQL1 (RECQL, RECQ1) DNA helicase, human, wild type; also called RECQ1; source: insect cells, purified to near homogeneity
Take B1: the binding result in series [5] is “binds”.

B2: recombinant human RECQL1-A459S (enzyme, UniProt P46063 1-649, looked up)
chain: MASVSALTEELDSITSELHAVEIQIQELTERQQELIQKKKVLTKKIKQCLEDSDAGASNEYDSSPAAWNKEDFPWSGKVKDILQNVFKLEKFRPLQLETINVTMAGKEVFLVMPTGGGKSLCYQLPALCSDGFTLVICPLISLMEDQLMVLKQLGISATMLNASSSKEHVKWVHAEMVNKNSELKLIYVTPEKIAKSKMFMSRLEKAYEARRFTRIAVDEVHCCSQWGHDFRPDYKALGILKRQFPNASLIGLTATATNHVLTDAQKILCIEKCFTFTASFNRPNLYYEVRQKPSNTEDFIEDIVKLINGRYKGQSGIIYCFSQKDSEQVTVSLQNLGIHAGAYHANLEPEDKTTVHRKWSANEIQVVVATVAFGMGIDKPDVRFVIHHSMSKSMENYYQESGRAGRDDMKADCILYYGFGDIFRISSMVVMENVGQQKLYEMVSYCQNISKCRRVLMSQHFDEVWNSEACNKMCDNCCKDSAFERKNITEYCRDLIKILKQAEELNEKLTPLKLIDSWMGKGAAKLRVAGVVAPTLPREDLEKIIAHFLIQQYLKEDYSFTAYATISYLKIGPKANLLNNEAHAITMQVTKSTQNSFRAESSQTCHSEQGDKKMEEKNSGNFQKKAANMLQQSGSKNTGAKKRKIDDA
notes: Variant found in patients (RECON syndrome); also called p.A459S mutant RECQL1; RECQL1 p.Ala459Ser; source: insect cells, purified to near homogeneity
B2: the binding result in series [5] is “binds”.

The record behind these values is paper PMC8884905, “RECON syndrome is a genome instability disorder caused by mutations in the DNA helicase RECQL1” (The Journal of Clinical Investigation, 2022).
